Reference: PMC7066465

What was measured:
[1] = biological target: native allophycocyanin of Agarophyton chilensis, αβ unit (Agarophyton chilensis); assay: SEC; Superdex 200 HiLoad 16/60; oligomer size estimated from a calibration curve of MW standards 1,750-670,000 Da (Bio-Rad gel filtration standard); oligomer of αβ units
[2] = biological target: recombinant allophycocyanin of Agarophyton chilensis, αβ unit (Agarophyton chilensis); assay: as above

A stoichiometry N [1] of 3 was found for “native allophycocyanin of Agarophyton chilensis, αβ unit (complex)” in this work.
A stoichiometry N [2] of 3 was found for “recombinant allophycocyanin of Agarophyton chilensis, αβ unit (complex)” in this work.
